Numbering of substitutions follows the chain as printed. Names may count otherwise.
T1: periplasmic part of HasB from Serratia marcescens, residues 37-263 (HasB^(Sm, peri)) (Serratia marcescens, UniProt Q79AD1 37-263)
T1 construct: HasB, the TonB paralog of the Heme Acquisition System of Serratia marcescens, residues 37-263; 15N-labelled in the NMR experiment; also called HasB_(37-263, Sm); source: bacterial expression (20 h at 30 °C), purified (cation exchange, SEC)
T1 sequence (looked up): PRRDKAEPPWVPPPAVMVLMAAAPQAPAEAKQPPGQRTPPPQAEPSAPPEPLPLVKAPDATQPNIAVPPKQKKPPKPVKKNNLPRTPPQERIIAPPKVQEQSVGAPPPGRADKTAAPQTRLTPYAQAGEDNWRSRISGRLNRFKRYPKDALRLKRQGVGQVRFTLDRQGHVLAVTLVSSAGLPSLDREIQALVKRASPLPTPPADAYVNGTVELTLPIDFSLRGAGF

B1: TonB peptide (KKAQPISVTMVTPADLEPPQAKK) (peptide)
peptide: KKAQPISVTMVTPADLEPPQAKK
notes: Probably a synthetic peptide
B2: periplasmic domain of ExbD from Escherichia coli, residues 43-141 (ExbD^(Ec, peri)) (domain or fragment, UniProt P0ABV2 43-141, looked up)
chain: VDVKVNLPASTSTPQPRPEKPVYLSVKADNSMFIGNDPVTDETMITALNALTEGKKDTTIFFRADKTVDYETLMKVMDTLHQAGYLKIGLVGEETAKAK
notes: ExbD of Escherichia coli, periplasmic domain, residues 43-141; not shown: His-tag, N-terminal, cleaved
B3: ExbD^(Ec, peri) V47C (domain or fragment, Escherichia coli, UniProt P0ABV2 43-141, looked up)
chain: B2 chain with V5C
modifications: disulfide bridge between the Cys 47 of the two subunits
notes: ExbD of Escherichia coli, periplasmic domain, residues 43-141, with V47C; not shown: His-tag, N-terminal, cleaved
B4: ExbD construct from E. coli lacking the N-terminal residues 43-60 (ExbD^(Ec, ΔNIBS)) (domain or fragment, Escherichia coli, UniProt P0ABV2 61-141, looked up)
chain: EKPVYLSVKADNSMFIGNDPVTDETMITALNALTEGKKDTTIFFRADKTVDYETLMKVMDTLHQAGYLKIGLVGEETAKAK
notes: ExbD of Escherichia coli, periplasmic domain (43-141) lacking the N-terminal residues 43-60; the limits 61-141 are worked out from these two statements; not shown: His-tag, N-terminal, cleaved
B5: periplasmic domain of ExbD from Serratia marcescens, residues 43-140 (ExbD^(Sm, peri)) (domain or fragment, UniProt V5YUQ0 43-140, looked up)
chain: VDIRVDLPASSAKPQPRPEKPVFLSVKADKQLYVGDQPVNADQLTSVLDQRTQANKETTIFFQADKSVDYETLMSVMDTLRKAGYLKVGLVGMEGAAK
notes: ExbD of Serratia marcescens (Has system), periplasmic domain, residues 43-140; 15N- or 13C,15N-labelled in the NMR samples; also called ExbD^(Sm, peri) wild type (wt); not shown: His-tag, N-terminal, cleaved
B6: ExbD^(Sm, peri) V47C (domain or fragment)
chain: B5 chain with V5C
modifications: disulfide bridge between the Cys 47 of the two subunits
notes: ExbD of Serratia marcescens, periplasmic domain, residues 43-140, with V47C; also called disulfide-bridged ExbD^(Sm, peri) V47C mutant; not shown: His-tag, N-terminal, cleaved

Experiments:
[1] = molecular target: B2; test: NMR titration; 2D [1H-15N]-HMQC spectra of 15N-labeled ExbD periplasmic domain with and without the HasB or TonB peptide; 293 K; conditions: both partners purified
[2] = molecular target: B4; test: crystal structure; 2 mM ExbD^(Ec, ΔNIBS) with 10 mM TonB peptide in 50 mM Tris-HCl, 50 mM NaCl, pH 7.0; crystals in 10% w/v glycerol and 3 M ammonium sulfate, 18 °C; 1.5 Å; conditions: both partners purified
[3] = molecular target: T2, periplasmic part of TonB from Escherichia coli, residues 34-239 (TonB^(Ec, peri)) (Escherichia coli, UniProt P02929 34-239); test: NMR titration; 2D [1H-15N]-TROSY spectra of 15N-labeled HasB^(Sm, peri) or TonB^(Ec, peri) alone and upon addition of the unlabeled ExbD periplasmic domain; 293 K; conditions: both partners purified
T2 construct: TonB of Escherichia coli, residues 34-239; 15N-labelled in the NMR experiment; not shown: His-tag, N-terminal, cleaved

[4] = molecular target: the molecule itself; test: AUC; sedimentation velocity, 100 μM ExbD^(Ec, peri) with 300 μM TonB peptide, 42000 rpm overnight, 50 mM sodium phosphate, 50 mM NaCl, pH 7.0
[5] = molecular target: the molecule itself; test: NMR spectra of a disulfide-bridged mutant; NMR fingerprint spectra of the V47C mutants compared with the wild type (Supplementary Fig. 7)
[6] = molecular target: the molecule itself; test: crystal structure; 2 mM ExbD^(Ec, ΔNIBS) with 10 mM TonB peptide in 50 mM Tris-HCl, 50 mM NaCl, pH 7.0; crystals in 10% w/v glycerol and 3 M ammonium sulfate, 18 °C; 1.5 Å
[7] = molecular target: T1, periplasmic part of HasB from Serratia …; test: NMR titration; 2D [1H-15N]-TROSY spectra of 15N-labeled HasB^(Sm, peri) or TonB^(Ec, peri) alone and upon addition of the unlabeled ExbD periplasmic domain; 293 K; conditions: both partners purified
[8] = molecular target: the molecule itself; test: AUC; sedimentation velocity, 100 μM ExbD alone, 42000 rpm overnight, 50 mM sodium phosphate, 50 mM NaCl, pH 7.0; c(S) model in SEDFIT

T2 sequence (P02929 34-239): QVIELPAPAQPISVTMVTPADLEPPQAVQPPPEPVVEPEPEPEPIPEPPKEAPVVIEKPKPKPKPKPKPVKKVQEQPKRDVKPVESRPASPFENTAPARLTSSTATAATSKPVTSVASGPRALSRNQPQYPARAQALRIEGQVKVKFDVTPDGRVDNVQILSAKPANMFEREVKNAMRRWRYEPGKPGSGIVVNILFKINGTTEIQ

B1: binds [1]; binds [2].

With B2 the binding result [3] was “binds” and the “stoichiometry N” value [4] was 2.

B3: binds [5].

B4: binds [6].

B5 was tested, and the binding result [7] was “binds” and the “stoichiometry N” value [8] was 2.

B6: binds [5].

Reference: article PMC10771500, “Ton motor conformational switch and peptidoglycan role in bacterial nutrient uptake” (Nature Communications, 2024)
